What was measured:
[1] = target: T1, S. cerevisiae Dhh1 residues 30-425 (DEAD-box core, RecA1 and RecA2) (S. cerevisiae, UniProt P39517 30-425); assay: ITC
T1 sequence: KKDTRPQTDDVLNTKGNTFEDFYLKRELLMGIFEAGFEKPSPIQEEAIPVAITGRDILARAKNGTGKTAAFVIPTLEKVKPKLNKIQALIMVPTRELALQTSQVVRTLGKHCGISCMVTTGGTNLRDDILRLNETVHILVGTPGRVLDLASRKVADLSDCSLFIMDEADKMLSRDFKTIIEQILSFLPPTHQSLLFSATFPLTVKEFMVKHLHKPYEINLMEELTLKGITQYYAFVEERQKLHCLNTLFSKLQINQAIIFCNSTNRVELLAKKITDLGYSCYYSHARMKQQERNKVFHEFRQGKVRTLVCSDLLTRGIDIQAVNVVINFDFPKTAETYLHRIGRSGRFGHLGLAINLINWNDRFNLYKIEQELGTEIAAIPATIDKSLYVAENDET

[2] = target: T1, S. cerevisiae Dhh1 residues 30-425 …; assay: pull-down
[3] = target: T1, S. cerevisiae Dhh1 residues 30-425 …; assay: SEC
[4] = target: T2, S. cerevisiae Dhh1 residues 46-422 K234D, V238D (S. cerevisiae, UniProt P39517 46-422, K234D | V238D); assay: crystal structure
T2 sequence: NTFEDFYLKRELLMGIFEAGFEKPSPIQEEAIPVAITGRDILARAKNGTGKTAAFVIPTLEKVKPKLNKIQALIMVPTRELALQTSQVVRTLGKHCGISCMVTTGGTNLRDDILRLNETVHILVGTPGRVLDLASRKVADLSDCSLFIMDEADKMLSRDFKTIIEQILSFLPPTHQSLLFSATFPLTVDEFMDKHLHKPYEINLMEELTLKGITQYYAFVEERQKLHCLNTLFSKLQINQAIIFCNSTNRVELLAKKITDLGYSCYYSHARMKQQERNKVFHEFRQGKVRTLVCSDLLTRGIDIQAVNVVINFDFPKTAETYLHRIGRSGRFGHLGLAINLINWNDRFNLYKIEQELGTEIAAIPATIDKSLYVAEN

[5] = target: T3, S. cerevisiae Dhh1 residues 251-425 (RecA2 domain) (S. cerevisiae, UniProt P39517 251-425); assay: ITC
T3 sequence: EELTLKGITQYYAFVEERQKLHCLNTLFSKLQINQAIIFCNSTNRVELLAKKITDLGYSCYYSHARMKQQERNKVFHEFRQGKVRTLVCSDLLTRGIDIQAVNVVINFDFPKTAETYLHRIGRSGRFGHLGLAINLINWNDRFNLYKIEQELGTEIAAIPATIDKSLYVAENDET

B1: S. cerevisiae Edc3 residues 77-158, as used for ITC (domain or fragment)
chain: QQNDYNQNRGEHIDWQDDDVSKIKQQEDFDFQRNLGMFNKKDVFAQLKQNDDILPENRLQGHNRKQTQLQQNNYQNDELVIP
Kd [1]: 200 nM

B2: GST-tagged S. cerevisiae Pat1 residues 1-114 (N-terminal domain) (domain or fragment)
chain: MSFFGLENSGNARDGPLDFEESYKGYGEHELEENDYLNDETFGDNVQVGTDFDFGNPHSSGSSGNAIGGNGVGATARSYVAATAEGISGPRTDGTAAAGPLDLKPMESLWSTAP
binding result [2]: binds

B3: S. cerevisiae Pat1 residues 1-114, as in the purified complex with Dhh1 30-425 used for limited proteolysis (domain or fragment)
chain: B2 chain
binding result [3]: binds

B4: GST-tagged S. cerevisiae Pat1 residues 1-56 (domain or fragment)
chain: MSFFGLENSGNARDGPLDFEESYKGYGEHELEENDYLNDETFGDNVQVGTDFDFGN
binding result [2]: binds

B5: S. cerevisiae Pat1 residues 5-79, as crystallized (domain or fragment)
chain: GLENSGNARDGPLDFEESYKGYGEHELEENDYLNDETFGDNVQVGTDFDFGNPHSSGSSGNAIGGNGVGATARSY
binding result [4]: binds

B6: His6-SUMO-tagged S. cerevisiae Pat1 residues 5-79 (domain or fragment)
chain: B5 chain
Kd [5]: 32 nM

QQNDYNQNRGEHIDWQDDDVSKIKQQEDFDFQRNLGMFNK (domain or fragment) [S. cerevisiae Edc3 residues 77-116, as crystallized]
binding result [4]: binds
